Assay results from patent US20080248064A1.
Like-named read-outs stand apart in the source and are kept apart here.

Experiments:
[1] = molecular target: recombinant DEN-2 virus E-glycoprotein antigen (wild type, from pCB8D2-2J-2-9-1) (dengue virus serotype 2 (carboxy-terminal 20% from JE virus))
[2] = molecular target: recombinant DEN-2 virus E-glycoprotein antigen (wild type, from pCB8D2-2J-2-9-1) (dengue virus serotype 2 (carboxy-terminal 20% from JE virus)); assay: IFA, wild-type plasmid transfected cells

Substance	mAb reactivity (end point) [1]	mAb reactivity (end point) [2]
mAb 3H5 (antibody)	> 6	> 4.4
mAb 4G2 (antibody)	> 6	3.8
mAb 4E5 (antibody)	> 2.9	2.6
